US20110086026A1 (ROCHE PALO ALTO, published 2011)
Numbering of substitutions follows the chain as printed.

Tests used:
[1] = molecular target: T1, hIL-13Rα1:hFc chimeric protein (R&D Systems, UK) (human, UniProt P78552 22-343); experiment: competition ELISA: hIL-13Rα1:hFc coated, antibody first, then IL-13 plus IL-4Rα; bound IL-13 detected with biotinylated anti-IL-13
T1 construct: extracellular domain; Bought; also called chimeric hIL-13Rα1:hFc; not shown: human Fc (hFc) of the bought chimera
T1 sequence (looked up): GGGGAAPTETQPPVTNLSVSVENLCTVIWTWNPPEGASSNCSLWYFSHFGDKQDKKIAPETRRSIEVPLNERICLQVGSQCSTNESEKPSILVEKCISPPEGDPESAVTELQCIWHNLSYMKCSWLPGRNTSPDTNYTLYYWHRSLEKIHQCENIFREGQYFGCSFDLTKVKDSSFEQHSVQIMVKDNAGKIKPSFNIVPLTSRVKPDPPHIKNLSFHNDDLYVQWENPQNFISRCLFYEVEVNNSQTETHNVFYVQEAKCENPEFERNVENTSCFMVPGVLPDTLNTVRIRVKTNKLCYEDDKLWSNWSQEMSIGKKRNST
Protocol: Microtiter plates were coated with 100 μl hIL-13Rα1:hFc chimeric protein (R&D Systems, UK) in PBS at 3 μg/ml at 4° C. overnight on a shaker. After washing the plates with WB, serially diluted HuMab and control antibodies (100 μl/well; dilutions in IB) were added and incubated for 30 min at RT. The plates were again washed, and then a mixture of IL-13 (R&D Systems, UK; 0.5 μg/ml; dilution with IB) and IL-4Rα (R&D Systems, UK; 0.75 μg/ml; dilution with IB) were added and incubated for 1 h at RT. After washing the plates 100 μl biotinylated anti IL-13 antibody (BAF213; R&D Systems, UK) in a concentration of 0.4 μg/ml was added and incubated for 1 h at RT. After washing the plates, bound IL-13 was detected by peroxidase-coupled streptavidin (Roche Diagnostics GmbH, DE) in a dilution of 1:5000 in IB (incubation period 1 h at RT). Finally, plates were washed and developed with ready-to-use ABTS® solution (Roche Diagnostics GmbH, DE) at room temperature (RT) in the dark. Absorbance was measured at 405 nm after 45 to 60 minutes.

[2] = molecular target: T2, hIL-13Rα2:hFc chimeric protein (R&D Systems, UK) (human, UniProt Q14627 27-343); experiment: ELISA, immobilized hIL-13Rα2:hFc, detection with anti-human kappa-POD, OD 405
T2 construct: Bought; not shown: human Fc (hFc) of the bought chimera
T2 sequence (looked up): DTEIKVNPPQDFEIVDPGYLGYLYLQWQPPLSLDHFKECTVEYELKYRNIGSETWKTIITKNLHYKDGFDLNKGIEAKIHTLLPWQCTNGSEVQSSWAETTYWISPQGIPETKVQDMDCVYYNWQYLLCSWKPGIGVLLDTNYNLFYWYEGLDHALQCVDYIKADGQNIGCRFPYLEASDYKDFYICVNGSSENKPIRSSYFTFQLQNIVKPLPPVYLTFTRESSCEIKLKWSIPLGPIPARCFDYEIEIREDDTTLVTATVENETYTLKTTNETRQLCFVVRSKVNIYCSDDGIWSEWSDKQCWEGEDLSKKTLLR
Protocol: (§1) Chimeric proteins hIL-13Rα2:hFc and hIL-4Rα:hFc (R&D Systems, UK) were dissolved in PBS (1 μg/ml) and allowed to adsorb to microtiter plates (NUNC Maxisorb) by incubation over night at 4° C. After washing the plates with washing buffer (WB=0.9% NaCl; 0.1% Tween® 20) unspecific binding sites were blocked by addition of 100 μl incubation buffer (IB=PBS with 1% crotein C and 0.1% Tween® 20) and incubation for 30 min at room-temperature (RT). Then serially diluted HuMab and control antibodies (100 μl/well; dilutions in IB) were added and incubated for 1 hour at RT. The plates were again washed and bound antibody was detected by incubation with peroxidase conjugated rabbit anti-human kappa (DAKO, Denmark) in a final dilution of 1:500 in IB. After incubation for 1 h at RT and a subsequent washing step, the plates were developed with ready-to-use ABTS® solution (Roche Diagnostics GmbH, DE) at RT in the dark. Absorbance was measured at 405 nm after absorbance of the highest concentration reached a sufficient OD.

[3] = molecular target: T3, hIL-4Rα:hFc chimeric protein (R&D Systems, UK) (human, UniProt P24394 26-232); experiment: ELISA, immobilized hIL-4Rα:hFc, detection with anti-human kappa-POD, OD 405
T3 construct: Bought; not shown: human Fc (hFc) of the bought chimera
T3 sequence (looked up): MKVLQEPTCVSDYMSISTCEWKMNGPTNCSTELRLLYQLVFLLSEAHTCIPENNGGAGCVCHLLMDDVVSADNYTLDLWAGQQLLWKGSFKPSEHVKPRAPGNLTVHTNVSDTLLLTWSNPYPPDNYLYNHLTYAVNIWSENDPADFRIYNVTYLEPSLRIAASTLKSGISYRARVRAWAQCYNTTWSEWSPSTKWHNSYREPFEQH
Protocol: as §1

[4] = molecular target: T4, extracellular domain of hIL-13Rα1 cleaved from hIL-13Rα1:hFc chimeric protein (human, UniProt P78552 22-343); experiment: SPR Biacore 3000, CM5 chip, HuMab captured by anti-hFcγ, cleaved hIL-13Rα1 as analyte, bivalent analyte model (ka1)
T4 construct: extracellular domain; also called Cleaved hIL-13Rα1 molecules (MW 40 kDa)
T4 sequence (looked up): T1 sequence (looked up)
Protocol: In these experiments, the affinity of the original IgG1 derived from hybridoma was compared with the affinities of the recombinant variant IgG1-Ala-Ala. For interaction analysis, a Biacore 3000 instrument was used. Running and reaction buffer was HBS-P (10 mM HEPES, 150 mM NaCl, 0.005% polysurfactant P, pH 7.4) at 25° C. Capturing antibody molecules (anti-hFcγ) were amine-coupled at a concentration of 20 μg/ml at a flow rate of 5 μl/min for 20 minutes. HuMabs were injected at concentrations of 10 μg/ml at a flow rate of 10 μl/min for 1 minute. Cleaved hIL-13 Rα1 molelcules (analyte) were injected for five minutes at eight concentrations between 1.56 nM and 200 nM and washed with HBS-P for five minutes. Regeneration of the surface was accomplished by two injections of 100 mM HCl for 1 min each. The chip, assay format and sequence of injections and kinetic data correspond to the description in Table 4. Kinetic data were calculated by fitting kinetic data to a bivalent analyte binding model.

[5] = molecular target: T1, hIL-13Rα1:hFc chimeric protein (R&D …); experiment: ELISA, immobilized hu IL-13Ra1:Fc, detection with anti-human kappa-POD, OD 405
[6] = molecular target: FcγRIIIa (CD16) on Natural Killer (NK) cells (UniProt P08637); experiment: FACS on NK cells in PBMC, maximum binding at 20 µg/ml
Chain of FcγRIIIa (CD16) on Natural Killer (NK) cells (P08637 17-254 limits assumed): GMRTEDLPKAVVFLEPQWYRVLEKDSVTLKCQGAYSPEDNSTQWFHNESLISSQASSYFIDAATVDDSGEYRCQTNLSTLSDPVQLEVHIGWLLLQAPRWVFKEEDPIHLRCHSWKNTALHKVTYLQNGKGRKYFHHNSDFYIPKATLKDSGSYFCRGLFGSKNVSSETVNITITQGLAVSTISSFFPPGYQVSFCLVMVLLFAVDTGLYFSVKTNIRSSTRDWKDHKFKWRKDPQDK

B1: HuMab LC5002-007 (antibody, human IgG1, V domains shown)
VH: QVQLVQSGAEVKKPGSSVKVSCKVSGGTFSSYAFSWVRQAPGQGLEWMGRIIPILGRTNYAQKFQGRVTITADKSTSTAYMEVSSLRSEDTAVYYCAREGETLDYFYYGMDVWGQGTTVTVSS
VL: EIVLTQSPGTLSLSPGERATLSCRASQSVSSSYLAWYQQKPGQAPRLLIYGASSRAIGIPDRFSGSGSGTDFTLTISRLEPEDFAVYYCQHYGSSLTFGGGTKVEIK
notes: Human IgG1 kappa from a HuMab mouse hybridoma; Only the variable domains are tied to this antibody; also called hu-MAB<h-IL-13R alpha>LC.5002-007 (DSM ACC2712)
**Q.** With B1 as the binder, how does the “IC50 (read off the curve)” value [1] read?
**A.** ~1 nM

B2: HuMab LC5002-005 (antibody, V domains shown)
VH: EVQVLDSGGGLVQPGGSLRLSCTASGFTFRLYTMSWVRQTPGRGLEWVSGISGSGLSTYFADSVKGRFTISRDNSKNTVYLQMNSLRAEDTAVYYCAKEGDWIYFDSWGQGTLVIVSS
VL: DIQMTQSPSSLSASVGDRVTITCRASQGISSWLAWYQQKPEKAPKSLIYAASSLQSGVPSRFSGSGSGTDFTLTISSLQPEDFATYYCQQYNSHPPTFGQGTKLEIK
notes: Only the variable domains are tied to this antibody; also called hu-MAB<h-IL-13Ralpha>LC.5002-005 (DSM ACC2711)
**Q.** Does B2 bind [2]?
**A.** no binding (tested: 3.3 nM)

**Q.** Does B2 bind [3]?
**A.** no binding (tested: 3.3 nM)

**Q.** And the kon [4]?
**A.** 133000 M⁻¹ s⁻¹

**Q.** And the “EC50 (read off the curve)” value [5]?
**A.** ~0.4 nM

**Q.** What about the Bmax (MFI) [6] of the same binder?
**A.** 581 MFI

B3: HuMab LC5002-002 (antibody, human IgG1, V domains shown)
VH: EVQLLESGGGLVQPGGSLRLSCAASGFTFNIYAMNWVRQAPGKGLEWVSVISGRGITTYYADSVKGRFTISRDNSKNTLYLQMNSLRADDTAVYYCAKGSSSWTDFDYWGQGTLVTVSS
VL: B2 VL with S31R, L33V, H94Y, P96W, L104V
notes: Human IgG1 kappa from a HuMab mouse hybridoma; Only the variable domains are tied to this antibody; also called hu-MAB<h-IL-13R alpha>LC.5002-002 (DSM ACC2709)
**Q.** For B3, which “IC50 (read off the curve)” value [1] is on record?
**A.** 1 to 2.5 nM

B4: HuMab LC5002-003 (antibody, V domains shown)
VH: B3 VH with G10D, V12I, N84D, D89E, S102Y
VL: B2 VL with H94Y, P96W, L104V
notes: Human IgG1 kappa from a HuMab mouse hybridoma; Only the variable domains are tied to this antibody; also called LC50002-003; hu-MAB<h-IL-13Ralpha>LC.5002-003 (DSM ACC2710)
**Q.** Does B4 bind [2]?
**A.** no binding (tested: 3.3 nM)

**Q.** Does B4 bind [3]?
**A.** no binding (tested: 3.3 nM)

**Q.** And the “EC50 (read off the curve)” value [5]?
**A.** ~0.4 nM

**Q.** And the “IC50 (read off the curve)” value [1]?
**A.** ~2 nM
